Measurements from publication PMC3779078 (Molecular reproduction and development, 2009).
One block for each molecule: values may come before it.

Experiments:
Assay in all cases: PAGE under mildly denaturing conditions with Western blot
[1] = target: Izumo 1 N-terminal domain (N), recombinant (mouse)
[2] = target: Izumo domain of Izumo 3, recombinant (mouse)
[3] = target: the molecule itself

stoichiometry N [1]: 2
Molecule: Izumo 1 N-terminal domain (N), recombinant (domain or fragment)

stoichiometry N [2]: 2
Molecule: Izumo domain of Izumo 3, recombinant (domain or fragment)

B1: Izumo 1 entire extracellular domain (N-Ig), recombinant (domain or fragment, mouse, UniProt Q9D9J7 22-319, looked up)
chain: CIKCDQFVTDALKTFENTYLNDHLPHDIHKNVMRMVNHEVSSFGVVTSAEDSYLGAVDENTLEQATWSFLKDLKRITDSDLKGELFIKELLWMLRHQKDIFNNLARQFQKEVLCPNKCGVMSQTLIWCLKCEKQLHICRKSLDCGERHIEVHRSEDLVLDCLLSWHRASKGLTDYSFYRVWENSSETLIAKGKEPYLTKSMVGPEDAGNYRCVLDTINQGHATVIRYDVTVLPPKHSEENQPPNIITQEEHETPVHVTPQTPPGQEPESELYPELHPELYPELIPTVAQNPEKKMKTR
stoichiometry N [3]: 2
